Results reported in the nanobody polyreactivity screen of Harvey et al. (2022).

Assay: yeast display, Sf9 membrane polyspecificity reagent, FACS + sequencing; frameworks hold sequencing errors
In short: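 Synthetic nanobody libraries on Saccharomyces cerevisiae BJ5465 were galactose-induced for 36–48 hours, stained 1 hour at 4 °C with 10% biotinylated, detergent-solubilized Sf9 membrane reagent and enriched on streptavidin microbeads. FACS then separated cells into low and high (top ~1%) gates by anti-HA (expression) and streptavidin (reagent binding) fluorescence. Genes were colony-PCR amplified, MiSeq 2 × 250 sequenced and CDR-length filtered. A clone's polyreactivity label is that of its gate of origin.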

Sequence | polyreactivity (PSR sort gate)
QVQLVESGGGLVQAGGRLRLSCAASGIIFRVYTMGWYRPEPGKERELVATISLGVARTYYADSVKGRFTISRDNAKYTVYLQMNSLKPEDTAVYYCAKRRGGQGNYWGQGTQVTVSS | high polyreactivity
QVQLVESGGGLVQAGGRLRLSCAASGIIFVVNDMGWYRQAPGKEWELVADISDSGGSTNYADSVKGRFTISRDKAKNTVYLQMNSLKPEDTAVYYCAADSADPTEYDYWGQGTQVTVSS | low polyreactivity
QVQLVESGGGLVQAGGRLRLSCAASGITFPGNVMGWSRHAPGKERELVAAISSTGSTNYADSVKGRFTISRDNAKNTVYLQMNSLKPEDTAVYYCAARFWYDYRHYDYWGQGTQVTVSS | low polyreactivity
QVQLVESGGGLVQAGGRLRLSCAASGITFRTNTMGWYRPAPGKERELVASISSGTRTNYADSVKGRFTISRDNAKNTVYLQLNSLKPVDTAVYYCAAGPPRTRYRNARFDYWGQGTQVTVSS | high polyreactivity
QVQLVESGGGLVQAGGRLRLSCAASGIVFKRYAKGWYRQAPGKEREFVATISYTGGRTYYADSVKGRFTISRDTAKNTVYLQMNSLKPEDTAVYYCATLYRSSKHQPLDYWGQGTQVTVSS | high polyreactivity
QVQLVESGGGLVQAGGRLRLSCAASGLICNANPMGWYRQAPGKEREFVAAITTSGGKTYYADSVKGRFTISRDNAKYTVYLQMNSLKPEDTAVYYCAATDLYFWYPYWFAFEYDYWGLGTQVTVSS | high polyreactivity
QVQLVESGGGLVQAGGRLRLSCAASGLIFYKYAMGWYRQAPGKERELVAAISSRTGSTSYADSVKGRFTISRDNAKNTVYLQMNSLKPEDTAVYYCAARPRYNEYGYWGQGTQVTVSS | high polyreactivity
QVQLVESGGGLVQAGGRLRLSCAASGLTFEYNAMGWYRQAPGKERELVASISSGGGTNYADSVKGRFTISRDNAKNTVYLQMNSLKPVDTAVYYCATDNYDWSCWAFRGYWYDYWGQGTQVTVSS | low polyreactivity
QVQLVESGGGLVQAGGRLRLSCAASGLTFKSYTMGLYRQAPGKERELVATISGSGTRTYYADSVKGRYTISRDNAKNTVFLQMNSLKPEDTAVYYCARVILYNNYFRYSGYRYDYWGQGTQGTVSS | high polyreactivity
QVQLVESGGGLVQAGGRLRLSCAASGLTFPPNAMGWYRQAPGKERELVADSGGSTNYADSVKGRFTISRDNAKNTVYLQMNSLKPEDTAVYYCAAPPYSDGQWDDYWGQGTQVTVSS | low polyreactivity
QVQLVESGGGLVQAGGRLRLSCAASGLTFPRNAMGWYRQAPGKERELVAAISWRGSSTYYADSVKGRFTISRDNAKNTVFLQMNSLQPEDTAVYYCAASYAGGQHDYWGQGTQVTVSS | high polyreactivity
QVQLVESGGGLVQAGGRLRLSCAASGLTFTYNAMGWYRQEPGKERELVAAITSGGNTNYADSVKGRFTISRDNAKNTVYLQMNSLKPEDTAVYYCATDRKNGISGRYGYWGQGTQVTVSS | low polyreactivity
QVQLVESGGGLVQAGGRLRLSCAASGRICIIYALGWYRQAPGKEREFVAAITSSGGSTYYADSVKGRFTISRDNAKNTVYLQMNSLTPEDTAVYYCAARVTKLRTSSLRGYWGQGTQVTVSS | high polyreactivity
QVQLVESGGGLVQAGGRLRLSCAASGRIFAYYAMGWYRQAPGKERELVAGISQRGSRTYYADSVKGRFTNSRDNAKNTVYLQMNSLTPEDTAVYYCAARDRRTVTMDYWGQGTQVTVSS | high polyreactivity
QVQLVESGGGLVQAGGRLRLSCAASGRIFDPYAMGWCRQAPGKESELVASISWSGGRTYYADSVKGRFTISRDNAKNTVYLQMNSLKPEDTAVYYCAAREWYRYKVRFDYWGQGTQVTVSS | high polyreactivity
QVQLVESGGGLVQAGGRLRLSCAASGRIFFYYAMGWYRQAPGKERELVAAITSGGNTNYADSVKGRFTISRDNAKNTVYLQMNSLKPEDTAVYYCNKDLYADGQYNYDYWGQGTQVTVSS | low polyreactivity
QVQLVESGGGLVQAGGRLRLSCAASGRIFGFNAMGWYRQAPGKERELVAAIDGNDASTFYADSGKGRFTISRDNAKNTDYFQMNSLKPEDTAVYYCAAESSYVYLGWREYWGQGTQVTVSS | high polyreactivity
QVQLVESGGGLVQAGGRLRLSCAASGRIFGSYAMGWYRQAPGKERELVAAITFSGVNTYYADSVKGRFTISRDNAKNTVYLQMNRLKPEDTAVYYCAVRGPEAEYDYWGQGTQVTVSS | high polyreactivity
QVQLVESGGGLVQAGGRLRLSCAASGRIFKPNAMGSYRQAPGKEREFVARITRNTGSTYYADSVKGRFSISRDNEKNTVYLQMNSLKPEDNAVYDCAAGAPSYYYYWGHGTQVTVSS | high polyreactivity
QVQLVESGGGLVQAGGRLRLSCAASGRIFPVNAMGWYRQAPGKERELVAGITWSGDGSTYYADSVKGRFTISRDNAKNTVYLQMNSLKPEDTAVYYCAARLNLQGRYDYSGQGTQVTVSS | low polyreactivity
QVQLVESGGGLVQAGGRLRLSCAASGRIFTRYAMGWYRQAPGKERELVAAINYRGSSTYYADSVKGRFTISRDNAKNTVYLQMNSLKPEDTAVYYCNTYGQTDTYWRYYYWGQGTQVTVSS | high polyreactivity

Sequence | polyreactivity (PSR sort gate)
QVQLVESGGGLVQAGGRLRLSCAASGRIFYFNAMGWYRQAPGKEREFVASINSIGDSTYYADSVKGRFTISRDNAKNTVYLQMNSLKPEDTAVYYCNADHGVINYRLDYWGQGTQVTVSS | low polyreactivity
QVQLVESGGGLVQAGGRLRLSCAASGRIFYNYAMGWYRQAPGKERELVAAISGSGGSTYYADSVKGRFTISRDNAKNTVYLQMNCLKPDDTAVYYCSTSGPQYYSRNFDYWGQGTQVTVSS | low polyreactivity
QVQLVESGGGLVQAGGRLRLSCAASGRIFYVYAMGGYRQAPGKERELVAAISRGGSTNSADSVKGRFTISRDNAKNTVYLQMNSLKPEDTAVYYCAASSLPHYSYRHSYLYVYWGQCTQVTVSS | low polyreactivity
QVQLVESGGGLVQAGGRLRLSCAASGRIYRRNTMGWYRQAPGKERELVAAITSSGGSTYADSVKGRFTISRDNAKNTVYLQMNSLKPEDTAVYYCATYVAYHRGYRTYDHWGQGTQVTVSS | low polyreactivity
QVQLVESGGGLVQAGGRLRLSCAASGRTFAYYAMGWYRQAPGKERELVASITTRDGSTYYADSVKGRFTISRDNAKNTVYLQMNSLKPEDTAVYYCAAATEYSSGYEYDYWGQGTQVTVSS | low polyreactivity
QVQLVESGGGLVQAGGRLRLSCAASGRTFRRYTMGWDRQAPGKERELVAANTSGGRTNYADSVKGRFTISRDNAKNTVYLQMNSLKPEDTAVYYCNAQNEIWRVTFSPYDRWGYDYWGQGTQVTVSA | low polyreactivity
QVQLVESGGGLVQAGGRLRLSCAASGRTFTPNAMGWYRQAPGKERELVAAIDWRGGRTYYADSVKGRFTISRDNAKNTVYLQMNSLKPEDTAVYYCAARVDGYHYKSAGYSYGVYYWGQGTQVTVSS | low polyreactivity
QVQLVESGGGLVQAGGRLRLSCAASGRTFYRNAMGWYRQAPGKERELVAGISVRGGRTYYADSVKGRFTISRDNAKNTVYLQMNSLKPEDTAVYYCNKRLSSSLSLKYDYWGQGTQVTVSS | high polyreactivity
QVQLVESGGGLVQAGGRLRLSCAASGRTFYSNAMGWYSQAPGKERELVAAITFGGGSTYYADSVKGRFTISRDNAKNTVYLQMNSLKPEDTAVYYCAAEGYKYRFYYWGQGTQVTVSS | low polyreactivity
QVQLVESGGGLVQAGGRLRLSCAASGRTFYSYTMGWYRPAPGKERELVAAIRYSGDRTYYADSVKGRFTISRDNAKNTVDLQMNSLKPEDTAVYYCGKAAPYPGSFYYWGQGTQVTVSS | low polyreactivity
QVQLVESGGGLVQAGGRLRLSCAASGRTIPYYAMGWSRQSPGKDREFVAAISGGGGSTHYADSVKGRFTISRDNAKNTVYLQMNSLKPEDTAVYYCNADKYSVYGEHPYDYWGQGSQVTVSS | low polyreactivity
QVQLVESGGGLVQAGGRLRLSCAASGRTIYGYDKGWYRQAPGKERELVAAINIGGRTNYADSVKGRFTISRDNAKNTVYLQMNSLKPEDTAVYYCADRYTFGPYLARSYGYWGQGTQVTVSS | low polyreactivity
QVQLVESGGGLVQAGGRLRLSCAASGRTLVSNAMGWYRQAPGKERELVAAITYSGGSTYYADSVKGRFTISRDNAKNTVYLQMNSLKPEDTAVYYCAKVGRLYRVGGYDYWGQGTQVTVSS | low polyreactivity
QVQLVESGGGLVQAGGRLRLSCAASGRTLWIYAMGWYRQAPGKERELVASITTRGGSTYYADSVKGRFTISRDNAKNTVYLQMKSLKPEDTAVYYCAAEGYTYYTYDPHDYWGQGTQVTVSS | high polyreactivity
QVQLVESGGGLVQAGGRLRLSCAASGRTMGWYRQAPGKERELVAAISSGGGSTYYADSVKGRFTISRDNAKNTVYLQMNSLKPEDTAVYYCARTTIAQLHSIVAPHDYWGQGTQVTVSS | low polyreactivity
QVQLVESGGGLVQAGGRLRLSCAASGSIFAGYAMGWYRQAPGKERELVAASSTDYADSVKGRFTISRDNAKNTVYLHMNSLKPEDTAVYYCAKVGFGIPGGFYYWGQGTQVTVSS | low polyreactivity
QVQLVESGGGLVQAGGRLRLSCAASGSIFASYALGWYRQAPGKERELVAVITRSGGSTYYADSVKGRFTISRDNAKNTVYLQMNSLKPEDTAVYYCAAQYGRTYYSRREYWGQGTQVTVSS | high polyreactivity
QVQLVESGGGLVQAGGRLRLSCAASGSIFDSYVMGWYRQAPGKERELVAAITYSGGSTYADSVKGRFTISRDNAKNTVYLEMNSLKPEDTAVYYCAAASYFYLYLLEDYWGQRTQVTVSS | low polyreactivity
QVQLVESGGGLVQAGGRLRLSCAASGSIFIGYAMGWYRQAPGKERELVATISGSGGSTYYADSEKGRFTISRDNAKNTVSLQMNSLKPEDSAVYYCAAVSVSSWYDYWGQGTQVTVSS | low polyreactivity
QVQLVESGGGLVQAGGRLRLSCAASGSIMDTNAMGWYRQAPGKERELVARIDIDGSTNYADSVKGRFTISRDNAKKTVYLQMNSLKPEDTAVYYCNKDHSSYGASGYDYWGQGTQVTVSS | low polyreactivity
